Four substances from paper PMC3024946, “Hydroxyproline-containing collagen analogs trigger the release and activation of collagen-sequestered proMMP-2 by competition with prodomain-derived peptide P33-42” (Fibrogenesis & Tissue Repair, 2011) can be followed below.

In test [1] the target is human collagen type I (CI) (human) (UniProt P02452). In words: SPR; CI immobilised on a dextran sensor chip by amine coupling; MMP 100 nM as analyte in PBS, 0.05% Tween 20 (no divalent metal ions); 25°C, 10 μl/min; 1:1 model with drifting baseline; without (GPO)10. Background: SPR reads the build-up and loss of mass on a sensor chip optically.
The target is the same in test [2]. In words: SPR; as a4, MMP mixed with a 10-fold molar excess of (GPO)10.
Test [3] concerns the target cyanogen bromide peptide 8 of the α1 chain of collagen type I (α1CB8) (human). The test can be described thus: radioligand binding; collagens, chains, fragments and peptides (2 μg/well or 200 ng/well) immobilised on polystyrene microtiter wells; 2 ng [125I]-MMP per well, 4°C, 2 h; washed with PBS, 0.05% Tween 20; residual radioactivity in a gamma counter.
For test [4], the target named is human collagen type I (CI) (human) (UniProt P02452). Described as above.
In test [5] the target is human collagen type III (CIII) (human) (UniProt P02461). Described as above.
Test [6] has as its target cyanogen bromide peptide 3 of the α1 chain of collagen type I (α1CB3) (human). The description is as above.
The target of test [7] is cyanogen bromide peptide 7 of the α1 chain of collagen type I (α1CB7) (human). Described as above.
In test [8] the target is cyanogen bromide peptide 6 of the α1 chain of collagen type I (α1CB6) (human). Described as above.
Test [9] has as its target human collagen type I (CI) (human) (UniProt P02452). The test can be described thus: SPR; CI immobilised on a sensor chip; pro- or actMMP-2 100 nM in MMP activity buffer (50 mM Tris-HCl pH 7.5, 200 mM NaCl, 5 mM CaCl2, 0.02% Brij-35) with 1 μM Ro 28-2653; 25°C; no competitor.
For test [10] the target is unchanged. In words: SPR; as a6, with a 10-fold molar excess of (GPO)10.
In test [11] the target is GAP, H-Gly-Ala-Cys-(Gly-Ala-Pro)5-Gly-Phe-Hyp-Gly-Glu-Arg-(Gly-Ala-Pro)5-NH2. In words: radioligand binding; collagens, chains, fragments and peptides (2 μg/well or 200 ng/well) immobilised on polystyrene microtiter wells; 2 ng [125I]-MMP per well, 4°C, 2 h; washed with PBS, 0.05% Tween 20; residual radioactivity in a gamma counter.
Test [12] has as its target α1 chain of collagen type I (α1(I)) (human) (UniProt P02452). Described as above.
Test [13] has as its target human collagen type VI (CVI) (human) (UniProt P12109). The test is described as above.
The target in test [14] is α2 chain of collagen type I (α2(I)) (human) (UniProt P08123). The test is described as above.
The target of test [15] is (GPO)10, H-Gly-Cys-Hyp-(Gly-Pro-Hyp)10-Gly-Cys-Hyp-Gly-NH2. Described as above.
Test [16] deals with (GPP)10, H-Gly-Cys-Pro-(Gly-Pro-Pro)10-Gly-Cys-Pro-Gly-NH2. The test is described as above.
Test [17] has as its target human collagen type I (CI) (human) (UniProt P02452). The test can be described thus: SPR; CI immobilised on a sensor chip; 100-250 nM proMMP-2 mixed with up to 100-fold molar excesses of P33-42 in MMP activity buffer with 1 μM Ro 28-2653.
Test [18] has the same target. The test can be described thus: SPR; as a6, with a 10-fold molar excess of (GPP)10.
Test [19] has the same target. The test can be described thus: SPR; as a6, with a 10-fold molar excess of (POG)5.

pKd: −log10 of the molar value. Some results are limits rather than exact numbers.

human collagen type I (CI) (human), sequence (P02452 23-1218, chain 1 of 2): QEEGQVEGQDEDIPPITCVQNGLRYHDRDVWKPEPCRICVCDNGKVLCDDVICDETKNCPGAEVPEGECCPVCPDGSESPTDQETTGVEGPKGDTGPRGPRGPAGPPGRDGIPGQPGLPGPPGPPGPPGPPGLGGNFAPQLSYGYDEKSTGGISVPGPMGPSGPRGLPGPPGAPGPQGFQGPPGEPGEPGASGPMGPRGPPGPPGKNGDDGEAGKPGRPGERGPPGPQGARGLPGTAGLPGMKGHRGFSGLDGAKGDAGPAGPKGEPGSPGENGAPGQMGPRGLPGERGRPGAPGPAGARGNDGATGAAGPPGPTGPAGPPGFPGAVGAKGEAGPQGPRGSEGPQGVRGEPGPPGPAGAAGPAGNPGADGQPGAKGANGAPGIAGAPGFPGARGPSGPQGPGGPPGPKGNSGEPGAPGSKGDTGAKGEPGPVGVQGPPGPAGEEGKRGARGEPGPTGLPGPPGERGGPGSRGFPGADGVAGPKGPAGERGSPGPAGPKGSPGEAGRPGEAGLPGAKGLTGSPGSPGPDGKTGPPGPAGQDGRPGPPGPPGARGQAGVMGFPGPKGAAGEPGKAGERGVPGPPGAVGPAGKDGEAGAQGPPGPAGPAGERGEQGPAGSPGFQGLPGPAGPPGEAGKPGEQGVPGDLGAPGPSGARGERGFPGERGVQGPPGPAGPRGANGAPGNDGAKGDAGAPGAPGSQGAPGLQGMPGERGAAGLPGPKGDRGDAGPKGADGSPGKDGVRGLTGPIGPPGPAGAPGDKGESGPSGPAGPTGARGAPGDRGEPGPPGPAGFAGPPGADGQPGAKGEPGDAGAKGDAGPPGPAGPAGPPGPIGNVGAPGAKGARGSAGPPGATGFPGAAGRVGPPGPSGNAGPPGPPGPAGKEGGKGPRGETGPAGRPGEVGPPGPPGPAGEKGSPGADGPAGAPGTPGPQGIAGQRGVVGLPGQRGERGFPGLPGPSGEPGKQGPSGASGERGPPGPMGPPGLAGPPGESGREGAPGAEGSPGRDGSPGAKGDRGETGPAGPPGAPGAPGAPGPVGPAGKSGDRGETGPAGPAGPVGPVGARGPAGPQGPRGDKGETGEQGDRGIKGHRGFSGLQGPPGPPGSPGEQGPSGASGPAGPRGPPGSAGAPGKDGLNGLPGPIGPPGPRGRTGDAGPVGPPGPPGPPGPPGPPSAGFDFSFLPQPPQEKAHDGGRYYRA
human collagen type I (CI) (human), sequence (P08123 80-1119, chain 2 of 2, further chain): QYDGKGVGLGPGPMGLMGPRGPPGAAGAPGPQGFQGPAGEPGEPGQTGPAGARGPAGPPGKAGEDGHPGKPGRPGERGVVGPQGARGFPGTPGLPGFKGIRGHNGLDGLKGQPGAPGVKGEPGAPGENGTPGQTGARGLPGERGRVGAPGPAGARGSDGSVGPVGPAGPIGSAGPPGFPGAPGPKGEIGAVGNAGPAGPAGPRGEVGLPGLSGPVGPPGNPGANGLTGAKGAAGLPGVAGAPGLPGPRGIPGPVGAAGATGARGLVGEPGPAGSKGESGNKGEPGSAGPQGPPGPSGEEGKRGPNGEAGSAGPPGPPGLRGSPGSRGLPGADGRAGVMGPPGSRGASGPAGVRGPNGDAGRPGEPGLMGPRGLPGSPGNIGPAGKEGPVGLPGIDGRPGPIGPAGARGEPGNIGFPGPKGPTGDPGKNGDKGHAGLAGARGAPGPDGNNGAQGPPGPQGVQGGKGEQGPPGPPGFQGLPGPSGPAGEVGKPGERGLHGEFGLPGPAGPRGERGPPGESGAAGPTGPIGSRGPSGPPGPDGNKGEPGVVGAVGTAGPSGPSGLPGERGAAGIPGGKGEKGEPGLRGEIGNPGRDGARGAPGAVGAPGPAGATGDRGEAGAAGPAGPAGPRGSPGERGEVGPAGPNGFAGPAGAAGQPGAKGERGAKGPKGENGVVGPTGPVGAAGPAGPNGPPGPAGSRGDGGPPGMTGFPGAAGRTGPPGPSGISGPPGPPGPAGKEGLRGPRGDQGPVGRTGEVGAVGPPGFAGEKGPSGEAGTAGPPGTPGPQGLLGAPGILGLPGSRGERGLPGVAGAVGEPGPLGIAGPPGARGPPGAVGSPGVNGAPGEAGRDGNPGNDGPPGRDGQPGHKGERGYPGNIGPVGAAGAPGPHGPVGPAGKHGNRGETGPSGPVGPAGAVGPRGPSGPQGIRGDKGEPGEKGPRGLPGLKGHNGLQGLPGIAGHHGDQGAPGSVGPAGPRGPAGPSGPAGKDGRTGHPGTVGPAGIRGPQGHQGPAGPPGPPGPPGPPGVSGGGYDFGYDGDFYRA
actMMP-9 (86-kDa trypsin-activated form of matrix metalloproteinase-9), sequence (P14780 107-707): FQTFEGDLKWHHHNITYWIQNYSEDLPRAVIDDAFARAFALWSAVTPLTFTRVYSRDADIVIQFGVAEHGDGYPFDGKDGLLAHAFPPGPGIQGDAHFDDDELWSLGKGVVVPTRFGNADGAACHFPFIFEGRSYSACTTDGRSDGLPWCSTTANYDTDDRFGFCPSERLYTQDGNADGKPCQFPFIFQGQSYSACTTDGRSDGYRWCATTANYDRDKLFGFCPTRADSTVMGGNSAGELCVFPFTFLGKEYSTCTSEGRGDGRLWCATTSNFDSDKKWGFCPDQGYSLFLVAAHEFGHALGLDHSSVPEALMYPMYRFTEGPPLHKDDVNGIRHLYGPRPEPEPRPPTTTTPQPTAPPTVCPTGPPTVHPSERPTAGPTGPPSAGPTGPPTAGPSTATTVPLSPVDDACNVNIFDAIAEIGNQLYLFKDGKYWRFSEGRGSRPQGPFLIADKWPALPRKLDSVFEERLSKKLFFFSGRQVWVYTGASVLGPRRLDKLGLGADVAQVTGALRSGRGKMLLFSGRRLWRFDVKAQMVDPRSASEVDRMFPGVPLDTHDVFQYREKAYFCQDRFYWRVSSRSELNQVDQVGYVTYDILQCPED
human collagen type III (CIII) (human), sequence (P02461 24-1221): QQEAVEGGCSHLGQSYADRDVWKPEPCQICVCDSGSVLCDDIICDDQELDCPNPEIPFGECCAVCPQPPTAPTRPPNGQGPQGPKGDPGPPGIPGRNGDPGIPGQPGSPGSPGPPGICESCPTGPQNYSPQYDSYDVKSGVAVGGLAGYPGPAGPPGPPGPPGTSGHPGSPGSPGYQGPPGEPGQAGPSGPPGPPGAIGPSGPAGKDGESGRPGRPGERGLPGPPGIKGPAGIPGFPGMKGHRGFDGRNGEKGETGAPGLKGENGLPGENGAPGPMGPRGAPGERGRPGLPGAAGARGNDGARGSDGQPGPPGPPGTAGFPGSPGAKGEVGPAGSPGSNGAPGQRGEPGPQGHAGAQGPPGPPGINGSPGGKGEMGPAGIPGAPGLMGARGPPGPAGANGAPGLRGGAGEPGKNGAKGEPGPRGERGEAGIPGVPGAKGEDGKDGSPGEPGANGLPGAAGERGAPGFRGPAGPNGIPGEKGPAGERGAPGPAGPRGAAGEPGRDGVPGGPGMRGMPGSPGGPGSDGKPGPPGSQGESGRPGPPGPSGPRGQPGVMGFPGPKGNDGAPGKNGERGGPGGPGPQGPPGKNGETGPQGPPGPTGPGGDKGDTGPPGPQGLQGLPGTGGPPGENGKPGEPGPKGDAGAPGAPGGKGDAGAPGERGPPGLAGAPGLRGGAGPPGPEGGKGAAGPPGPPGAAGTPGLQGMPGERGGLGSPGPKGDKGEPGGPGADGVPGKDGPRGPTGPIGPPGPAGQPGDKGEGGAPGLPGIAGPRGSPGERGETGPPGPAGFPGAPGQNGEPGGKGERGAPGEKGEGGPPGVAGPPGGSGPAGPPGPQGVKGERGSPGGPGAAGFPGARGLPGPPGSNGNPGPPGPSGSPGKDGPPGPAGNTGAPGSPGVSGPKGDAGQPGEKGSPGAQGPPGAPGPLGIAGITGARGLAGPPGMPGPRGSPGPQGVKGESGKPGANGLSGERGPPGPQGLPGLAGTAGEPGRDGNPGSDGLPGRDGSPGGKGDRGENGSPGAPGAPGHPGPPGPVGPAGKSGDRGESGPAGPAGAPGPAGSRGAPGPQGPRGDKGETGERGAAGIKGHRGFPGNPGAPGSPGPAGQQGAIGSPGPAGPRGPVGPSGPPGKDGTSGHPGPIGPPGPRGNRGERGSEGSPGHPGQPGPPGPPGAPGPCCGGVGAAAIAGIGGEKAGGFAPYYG
α1 chain of collagen type I (α1(I)) (human), sequence (P02452 162-1218): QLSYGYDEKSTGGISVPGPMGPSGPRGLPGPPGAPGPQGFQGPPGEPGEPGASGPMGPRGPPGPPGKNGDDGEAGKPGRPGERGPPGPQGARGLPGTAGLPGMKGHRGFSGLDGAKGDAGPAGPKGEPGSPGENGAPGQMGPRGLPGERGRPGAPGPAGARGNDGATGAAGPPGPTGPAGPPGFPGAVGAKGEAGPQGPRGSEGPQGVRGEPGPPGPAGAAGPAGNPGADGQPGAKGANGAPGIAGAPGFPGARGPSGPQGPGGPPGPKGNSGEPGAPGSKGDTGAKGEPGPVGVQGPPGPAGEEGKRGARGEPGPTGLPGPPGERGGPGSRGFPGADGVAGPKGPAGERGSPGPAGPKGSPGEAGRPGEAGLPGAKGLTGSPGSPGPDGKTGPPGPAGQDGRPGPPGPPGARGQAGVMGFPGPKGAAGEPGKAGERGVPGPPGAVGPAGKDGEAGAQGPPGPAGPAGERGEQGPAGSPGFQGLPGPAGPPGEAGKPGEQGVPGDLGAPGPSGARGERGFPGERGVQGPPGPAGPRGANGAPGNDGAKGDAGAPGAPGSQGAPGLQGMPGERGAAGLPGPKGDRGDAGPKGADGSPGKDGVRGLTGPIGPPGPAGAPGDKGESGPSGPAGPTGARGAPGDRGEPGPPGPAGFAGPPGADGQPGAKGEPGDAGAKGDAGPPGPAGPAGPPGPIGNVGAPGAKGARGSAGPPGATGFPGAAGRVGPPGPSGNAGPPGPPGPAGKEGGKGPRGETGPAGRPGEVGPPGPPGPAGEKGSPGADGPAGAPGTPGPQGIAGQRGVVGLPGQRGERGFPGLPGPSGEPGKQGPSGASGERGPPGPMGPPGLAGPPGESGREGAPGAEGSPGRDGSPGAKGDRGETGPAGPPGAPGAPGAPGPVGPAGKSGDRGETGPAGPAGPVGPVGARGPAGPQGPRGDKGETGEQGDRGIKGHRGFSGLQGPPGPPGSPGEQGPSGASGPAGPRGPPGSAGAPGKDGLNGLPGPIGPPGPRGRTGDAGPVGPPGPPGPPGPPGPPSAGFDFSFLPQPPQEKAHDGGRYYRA

For the substance “actMMP-9 (86-kDa trypsin-activated form of matrix metalloproteinase-9) (from UniProt P14780 107-707) (enzyme)”, the pKd (in general, the Kd on a negative log10 scale, so that one unit is a factor of ten) in test [1] was 6.06. In test [1], the koff – broadly, a measure of how fast the partners let go of each other – was 0.76 s⁻¹. For the same substance, the Kd with 10-fold molar excess of (GPO)10 in test [2] was 1790 nM. The off rate with 10-fold molar excess of (GPO)10 in test [2] came out at 0.61 s⁻¹. For the same substance, the bound [125I]-MMP (% of the radiolabeled MMP added) in test [3] amounted to 2.8%; in test [4], 3.1%; in test [5], 5%; in [6] it was 1.8%; in test [7], 2.1%; in test [8], 2.4%.
“proMMP-9 (92-kDa latent proform of matrix metalloproteinase-9) (from UniProt P14780 20-707) (enzyme)” showed a pKd in test [1] of 6.92. Also, the koff in [1] is 0.32 s⁻¹. In addition, in test [2], the Kd with 10-fold molar excess of (GPO)10 is 1220 nM. The off rate with 10-fold molar excess of (GPO)10 in test [2] was 0.22 s⁻¹. The bound [125I]-MMP (% of the radiolabeled MMP added) in test [3] is 31.6%; in test [4], 30.9%; in [5], 45%; in [6], 7.4%; in [7], 20.4%; in [8], 19.3%.
Regarding “actMMP-2 (62-kDa APMA-activated form of matrix metalloproteinase-2) (enzyme)”, the pKd in test [1] was 6.77; in test [9], 6.60. In test [1], this substance showed a koff of 0.48 s⁻¹. Moreover, the Kd with 10-fold molar excess of (GPO)10 in test [2] is 210 nM; in test [10], 2710 nM. In addition, the off rate with 10-fold molar excess of (GPO)10 in test [2] is 0.56 s⁻¹. Besides, the bound [125I]-MMP (% of the radiolabeled MMP added) in test [3] turned out to be 4.4%; in [4], 11.1%; in test [11] it was 1.5%; in test [5], 14.3%; in test [12], 19%; in [6], 7.4%. Also, the bound [125I]-MMP (% of the radiolabeled MMP added) in test [13] is 4.8%; in [14] it was 10.7%; in [15], 6.2%; in [7], 6.8%; in test [16], 2.1%; in [8] it was 4.9%.
As for “proMMP-2 (72-kDa latent proform of matrix metalloproteinase-2) (from UniProt P08253 30-660) (enzyme)”, the increase of the Kd with high molar excesses of P33-42 in test [17] is < 50%. Further, the pKd in test [1] is 7.15; in [9] it was 8.15. For the same substance, the koff in test [1] came out at 0.48 s⁻¹. The figures for the Kd with 10-fold molar excess of (GPO)10 in test [2] and in test [10] were 100 nM and 156 nM, respectively. Besides, the off rate with 10-fold molar excess of (GPO)10 in test [2] stood at 0.37 s⁻¹. In addition, the bound [125I]-MMP (% of the radiolabeled MMP added) in test [3] amounted to 14%; in test [4] it was 24%; in [5] it was 40%; in test [6], 13.2%; in test [7], 18.2%; in [8] it was 12.8%. For the same substance, the Kd with 10-fold molar excess of (GPP)10 in test [18] is 42.1 nM. The substance also gave a Kd with 10-fold molar excess of (POG)5 in [19] of 156 nM.
